In the nanobody polyreactivity screen of Harvey et al. (2022):

Assay: yeast display, Sf9 membrane polyspecificity reagent, FACS + sequencing; frameworks hold sequencing errors
Procedure, shortened: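 Nanobodies came from a synthetic yeast display library in Saccharomyces cerevisiae BJ5465, induced with galactose for 36–48 hours and stained for 1 hour at 4 °C with 10% biotinylated, detergent-solubilized Sf9 membrane reagent. Cells were enriched on streptavidin microbeads and then FACS-sorted, with low and high (top ~1%) gates set on anti-HA fluorescence for expression and streptavidin fluorescence for reagent binding. Each polyreactivity label reflects the gate a clone came from. Genes were amplified by colony PCR, sequenced by MiSeq 2 × 250 and filtered by CDR length.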

Row | Sequence | polyreactivity (PSR sort gate)
1 | QVQLVESGGGLVQAGGSLRLSCAASGSTFAFYAMGWYRQAPGKERELVAAISSSGARTYYADSVKGRFTLSRDNAKNTVYLQMNSLKPEDTAVYYCAAAFYRLYITSYYYWGQGTQVTVSS | high polyreactivity
2 | QVQLVESGGGLVQAGGSLRLSCAASGSTFAGNAMGWYRQAPGKERELVAAITSGTGTHYADSVKGRFTISRDNAKNSVYLQMNSLKPEDTAVYYCAAEVWTWAGIWGYEYWGQGTQVTVSS | low polyreactivity
3 | QVQLVESGGGLVQAGGSLRLSCAASGSTFAGNGMGWYRQAPGKERELVAGIDVTGGSSYYADSVKGRFTISRDNAKNTVYLQMNSLKPEDTAVYYCNTVWYRGGIDYYWGQGTQVTVSS | low polyreactivity
4 | QVQLVESGGGLVQAGGSLRLSCAASGSTFAGYTLGWYRQAPGKERELVAAITSRGGRTYYADSVKGRFTISRDHAKNTVYLQMNSLKPEDTAVYYCAAVSRYYAALMYYWGQGTQVTVSS | high polyreactivity
5 | QVQLVESGGGLVQAGGSLRLSCAASGSTFAINAMGWYRQAPGKERELVAAISSSGSTNYADSVKGRFTISRDNAKNTVYLQMNSLIPEDTAVYYCAADRVWGTPQAYVPSQFDYWGQGTQVTVSS | low polyreactivity
6 | QVQLVESGGGLVQAGGSLRLSCAASGSTFAINAMGWYRQAPGKERELVAAITSGGGTNYADSVKGRFTISRDNAKNTVFLQMISLKPEDTAVYYCYGRVYWYYPMDYWGQGTQVTVSS | low polyreactivity
7 | QVQLVESGGGLVQAGGSLRLSCAASGSTFAKNAMGWYRQAPGKERELVAAITASGGSTYYADSVKGRFTISRDNAKNTVSLQMNSLKPEDTAVYYCAKSSYLTRGSRYDYWGQGTQVTVSS | low polyreactivity
8 | QVQLVESGGGLVQAGGSLRLSCAASGSTFAKYAMGWYRQAPGKERELVAAIRSGGSTNYADSVKGRFTISRDNAKITVYLQMYSLKPEDTAVYYCAAKRDVSRPVYFRNDYWGQGTQVTVSS | low polyreactivity
9 | QVQLVESGGGLVQAGGSLRLSCAASGSTFAKYAMGWYRQAPGKERELVASIRLSGGSTYYADSVKGRFTISRDNAKNPDYLQMNSLNPEDTAVYYFNKQFATFYYGFDYYYWGQGSQVTVSS | low polyreactivity
10 | QVQLVESGGGLVQAGGSLRLSCAASGSTFALYTMGWYRQAPGKERELVAAIRYGGGSTYYADSVKGRFTISRDNAKNTVYLQMNSLKPEDTAVYYCARDLYNLYSGSYYWGQGTQVTVSS | low polyreactivity
11 | QVQLVESGGGLVQAGGSLRLSCAASGSTFAPNALGWSRQAPGKERELVAAIRTNTVSTYYADSVKGRFTISRDNAKNTVYLQMNSLKPEDTEVYYCAAVFSGFYYAYDYWGQGTQVTVSS | high polyreactivity
12 | QVQLVESGGGLVQAGGSLRLSCAASGSTFAPNAMGWYRQAPGKEREFVASITWRGGSTYYADSVKGRFTISRDNAKNTVYLQMNSLKPEDTAVYYCANLKRGFYRLFGFRYDYWGQGTQVTVSS | low polyreactivity
13 | QVQLVESGGGLVQAGGSLRLSCAASGSTFAPNAMGWYRQAPGKERELVAAIRFDTGSTYYADSVKGRFTISRDNAKNTVYLQMNSLKPEDTAVYYCAAYNHYLSESDYWGQGTQVTVSS | low polyreactivity
14 | QVQLVESGGGLVQAGGSLRLSCAASGSTFAPYAMGWYRQAPGKERELVAAIRSSGGSTYYADSVKGRFTISRDNAKNTVYLQMNSLKPEDTAVYYCADDYYTSADYVDYYYWGQGTQVTVSS | low polyreactivity
15 | QVQLVESGGGLVQAGGSLRLSCAASGSTFAQNGLGWYRQAPGKERELVAAITSSGSTNYADSVKGRFTISRDNAKNTVYLQMNSLKPEDTAVYYCAKDVLAPYTRHDYWGQGTQVTVSS | low polyreactivity
16 | QVQLVESGGGLVQAGGSLRLSCAASGSTFASYAMGWYRQAPGKEREFVAAITRSGTSTYYADSVQGRFTISRDNAKNTVYLQMNSLKPEDTAVYYCNATRRTVGFGYWGQGTQVPVSS | high polyreactivity
17 | QVQLVESGGGLVQAGGSLRLSCAASGSTFATNTMGWYRQAPGKERELVARITSSDGSTTYADSVKGRFTISRDNAKNTDYLQMNSLKPEDTAVYYCAAAYGRRWGYDYWGQGTQVTVSS | low polyreactivity
